Target: Endogenous β-catenin of SW480 human colon carcinoma cells (human) (UniProt P35222)
Assay: cell-based or functional assay

Chain of Endogenous β-catenin of SW480 human colon carcinoma cells (human) (P35222 2-781): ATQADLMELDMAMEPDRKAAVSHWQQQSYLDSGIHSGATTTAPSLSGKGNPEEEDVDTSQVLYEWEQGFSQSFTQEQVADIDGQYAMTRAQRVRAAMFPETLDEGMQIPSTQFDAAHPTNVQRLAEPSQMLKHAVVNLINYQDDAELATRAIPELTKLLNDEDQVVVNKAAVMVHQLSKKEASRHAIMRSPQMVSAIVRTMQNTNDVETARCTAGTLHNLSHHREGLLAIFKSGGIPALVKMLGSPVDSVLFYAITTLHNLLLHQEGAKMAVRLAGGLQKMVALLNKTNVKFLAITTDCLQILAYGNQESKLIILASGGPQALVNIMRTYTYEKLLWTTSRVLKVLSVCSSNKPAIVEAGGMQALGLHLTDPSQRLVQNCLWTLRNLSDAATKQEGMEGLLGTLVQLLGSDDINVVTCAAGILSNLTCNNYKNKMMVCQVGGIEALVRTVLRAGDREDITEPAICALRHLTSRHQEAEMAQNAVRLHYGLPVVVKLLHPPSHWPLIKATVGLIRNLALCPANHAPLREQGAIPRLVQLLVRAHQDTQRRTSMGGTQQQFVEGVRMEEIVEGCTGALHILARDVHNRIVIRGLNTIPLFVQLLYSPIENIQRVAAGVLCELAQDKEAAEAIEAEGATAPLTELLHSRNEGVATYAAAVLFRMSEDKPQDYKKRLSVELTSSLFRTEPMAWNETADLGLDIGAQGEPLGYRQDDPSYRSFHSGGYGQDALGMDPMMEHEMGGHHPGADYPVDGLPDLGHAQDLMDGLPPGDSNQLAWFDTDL

| inhibition of luciferase activity (LEF-1-driven transactivation) in SW480 cells | inhibition of TOPFLASH-responsive transcription (luciferase) in SW480 cells | Substance |
| --- | --- | --- |
| 80% | – | Cytoplasmic tail of N-cadherin (amino acids 752-912) fused to the C-terminus of GFP (from UniProt B2KI42 746-906) |
| 75% | – | Cytoplasmic tail of mouse E-cadherin (amino acids 735-884) fused to the C-terminus of GFP (from UniProt P09803 720-869) |
| 60% | – | GFP-E72 (C-terminal 72 amino acids of mouse E-cadherin, residues 813-884, fused to the C-terminus of GFP) (from UniProt P09803 798-869) |
| 70% | – | GFP-N71 (C-terminal 71 amino acids of N-cadherin, residues 842-912, fused to the C-terminus of GFP) (from UniProt B0KW95 836-906) |
| – | 50% | IL2R/N-cadherin chimera (extracellular and transmembrane domains of IL2Rα fused to the intracellular domain of N-cadherin, amino acids 752-912) |
